Laboratory results taken from paper PMC9316223, “Can Modern Molecular Modeling Methods Help Find the Area of Potential Vulnerability of Flaviviruses?” (International Journal of Molecular Sciences, 2022).

Tests used:
Conditions in all cases: both partners purified
[1] = target: T1, TEF1, fragment of TBEV E protein containing 1-187 aa (Tick-borne encephalitis virus, strain …, UniProt Q01299); assay: far-Western, overlay or dot blot
T1 construct: source: E. coli BL21(DE3), purified (lysis buffer with 8 M urea, Ni-IMAC Sepharose)

[2] = target: T2, WEF1, fragment of WNV E protein containing 1-186 aa (West Nile virus, strain 956 …, UniProt P06935); assay: far-Western, overlay or dot blot; dot blot: recombinant proteins (1 µL at 1.5 mg/mL) adsorbed onto nitrocellulose; 10H10 mAb 2 μg/mL in PBS, 0.1% Tween-20, 1% BSA for 10 min; detected with goat anti-mouse IgG conjugated with alkaline phosphatase
T2 construct: envelope protein E of West Nile virus strain 956 (genome NC_001563.2), residues 1-186; numbers count on: the E protein (cut product of the polyprotein); Cloned into pET32 (BamHI/XhoI); the vector may add further linker and tag residues between thioredoxin and the insert; source: E. coli BL21(DE3), purified (lysis buffer with 8 M urea, Ni-IMAC Sepharose)

[3] = target: T3, ZEF1, fragment of ZIKV E protein containing 1-187 aa (Zika virus, strain MR-766 (KX377335.1), UniProt A0A192GPS6); assay: as above
T3 construct: envelope protein E of Zika virus strain MR-766 (genome KX377335.1), residues 1-187; numbers count on: the E protein (cut product of the polyprotein); Cloned into pET32 (NcoI/XhoI); the vector may add further linker and tag residues; The UniProt entry recalled is of strain Mr 766 from another GenBank record and may differ in a few residues from KX377335.1; source: E. coli BL21(DE3), purified …

[4] = target: T4, DEF1, fragment of DENV E protein containing 1-184 aa (Dengue virus 3, strain Sri …, UniProt Q6YMS4); assay: as above
T4 construct: envelope protein E of dengue virus 3 strain Sri Lanka/1266/2000 (genome AY099336.1), residues 1-184; numbers count on: the E protein (cut product of the polyprotein); Cloned into pET32 (BamHI/XhoI); the vector may add further linker and tag residues; source: E. coli BL21(DE3), purified (lysis buffer with 8 M urea, Ni-IMAC Sepharose)

Measured: binding result

T2 sequence (P06935 whole entry, looked up, the tested form may be a part): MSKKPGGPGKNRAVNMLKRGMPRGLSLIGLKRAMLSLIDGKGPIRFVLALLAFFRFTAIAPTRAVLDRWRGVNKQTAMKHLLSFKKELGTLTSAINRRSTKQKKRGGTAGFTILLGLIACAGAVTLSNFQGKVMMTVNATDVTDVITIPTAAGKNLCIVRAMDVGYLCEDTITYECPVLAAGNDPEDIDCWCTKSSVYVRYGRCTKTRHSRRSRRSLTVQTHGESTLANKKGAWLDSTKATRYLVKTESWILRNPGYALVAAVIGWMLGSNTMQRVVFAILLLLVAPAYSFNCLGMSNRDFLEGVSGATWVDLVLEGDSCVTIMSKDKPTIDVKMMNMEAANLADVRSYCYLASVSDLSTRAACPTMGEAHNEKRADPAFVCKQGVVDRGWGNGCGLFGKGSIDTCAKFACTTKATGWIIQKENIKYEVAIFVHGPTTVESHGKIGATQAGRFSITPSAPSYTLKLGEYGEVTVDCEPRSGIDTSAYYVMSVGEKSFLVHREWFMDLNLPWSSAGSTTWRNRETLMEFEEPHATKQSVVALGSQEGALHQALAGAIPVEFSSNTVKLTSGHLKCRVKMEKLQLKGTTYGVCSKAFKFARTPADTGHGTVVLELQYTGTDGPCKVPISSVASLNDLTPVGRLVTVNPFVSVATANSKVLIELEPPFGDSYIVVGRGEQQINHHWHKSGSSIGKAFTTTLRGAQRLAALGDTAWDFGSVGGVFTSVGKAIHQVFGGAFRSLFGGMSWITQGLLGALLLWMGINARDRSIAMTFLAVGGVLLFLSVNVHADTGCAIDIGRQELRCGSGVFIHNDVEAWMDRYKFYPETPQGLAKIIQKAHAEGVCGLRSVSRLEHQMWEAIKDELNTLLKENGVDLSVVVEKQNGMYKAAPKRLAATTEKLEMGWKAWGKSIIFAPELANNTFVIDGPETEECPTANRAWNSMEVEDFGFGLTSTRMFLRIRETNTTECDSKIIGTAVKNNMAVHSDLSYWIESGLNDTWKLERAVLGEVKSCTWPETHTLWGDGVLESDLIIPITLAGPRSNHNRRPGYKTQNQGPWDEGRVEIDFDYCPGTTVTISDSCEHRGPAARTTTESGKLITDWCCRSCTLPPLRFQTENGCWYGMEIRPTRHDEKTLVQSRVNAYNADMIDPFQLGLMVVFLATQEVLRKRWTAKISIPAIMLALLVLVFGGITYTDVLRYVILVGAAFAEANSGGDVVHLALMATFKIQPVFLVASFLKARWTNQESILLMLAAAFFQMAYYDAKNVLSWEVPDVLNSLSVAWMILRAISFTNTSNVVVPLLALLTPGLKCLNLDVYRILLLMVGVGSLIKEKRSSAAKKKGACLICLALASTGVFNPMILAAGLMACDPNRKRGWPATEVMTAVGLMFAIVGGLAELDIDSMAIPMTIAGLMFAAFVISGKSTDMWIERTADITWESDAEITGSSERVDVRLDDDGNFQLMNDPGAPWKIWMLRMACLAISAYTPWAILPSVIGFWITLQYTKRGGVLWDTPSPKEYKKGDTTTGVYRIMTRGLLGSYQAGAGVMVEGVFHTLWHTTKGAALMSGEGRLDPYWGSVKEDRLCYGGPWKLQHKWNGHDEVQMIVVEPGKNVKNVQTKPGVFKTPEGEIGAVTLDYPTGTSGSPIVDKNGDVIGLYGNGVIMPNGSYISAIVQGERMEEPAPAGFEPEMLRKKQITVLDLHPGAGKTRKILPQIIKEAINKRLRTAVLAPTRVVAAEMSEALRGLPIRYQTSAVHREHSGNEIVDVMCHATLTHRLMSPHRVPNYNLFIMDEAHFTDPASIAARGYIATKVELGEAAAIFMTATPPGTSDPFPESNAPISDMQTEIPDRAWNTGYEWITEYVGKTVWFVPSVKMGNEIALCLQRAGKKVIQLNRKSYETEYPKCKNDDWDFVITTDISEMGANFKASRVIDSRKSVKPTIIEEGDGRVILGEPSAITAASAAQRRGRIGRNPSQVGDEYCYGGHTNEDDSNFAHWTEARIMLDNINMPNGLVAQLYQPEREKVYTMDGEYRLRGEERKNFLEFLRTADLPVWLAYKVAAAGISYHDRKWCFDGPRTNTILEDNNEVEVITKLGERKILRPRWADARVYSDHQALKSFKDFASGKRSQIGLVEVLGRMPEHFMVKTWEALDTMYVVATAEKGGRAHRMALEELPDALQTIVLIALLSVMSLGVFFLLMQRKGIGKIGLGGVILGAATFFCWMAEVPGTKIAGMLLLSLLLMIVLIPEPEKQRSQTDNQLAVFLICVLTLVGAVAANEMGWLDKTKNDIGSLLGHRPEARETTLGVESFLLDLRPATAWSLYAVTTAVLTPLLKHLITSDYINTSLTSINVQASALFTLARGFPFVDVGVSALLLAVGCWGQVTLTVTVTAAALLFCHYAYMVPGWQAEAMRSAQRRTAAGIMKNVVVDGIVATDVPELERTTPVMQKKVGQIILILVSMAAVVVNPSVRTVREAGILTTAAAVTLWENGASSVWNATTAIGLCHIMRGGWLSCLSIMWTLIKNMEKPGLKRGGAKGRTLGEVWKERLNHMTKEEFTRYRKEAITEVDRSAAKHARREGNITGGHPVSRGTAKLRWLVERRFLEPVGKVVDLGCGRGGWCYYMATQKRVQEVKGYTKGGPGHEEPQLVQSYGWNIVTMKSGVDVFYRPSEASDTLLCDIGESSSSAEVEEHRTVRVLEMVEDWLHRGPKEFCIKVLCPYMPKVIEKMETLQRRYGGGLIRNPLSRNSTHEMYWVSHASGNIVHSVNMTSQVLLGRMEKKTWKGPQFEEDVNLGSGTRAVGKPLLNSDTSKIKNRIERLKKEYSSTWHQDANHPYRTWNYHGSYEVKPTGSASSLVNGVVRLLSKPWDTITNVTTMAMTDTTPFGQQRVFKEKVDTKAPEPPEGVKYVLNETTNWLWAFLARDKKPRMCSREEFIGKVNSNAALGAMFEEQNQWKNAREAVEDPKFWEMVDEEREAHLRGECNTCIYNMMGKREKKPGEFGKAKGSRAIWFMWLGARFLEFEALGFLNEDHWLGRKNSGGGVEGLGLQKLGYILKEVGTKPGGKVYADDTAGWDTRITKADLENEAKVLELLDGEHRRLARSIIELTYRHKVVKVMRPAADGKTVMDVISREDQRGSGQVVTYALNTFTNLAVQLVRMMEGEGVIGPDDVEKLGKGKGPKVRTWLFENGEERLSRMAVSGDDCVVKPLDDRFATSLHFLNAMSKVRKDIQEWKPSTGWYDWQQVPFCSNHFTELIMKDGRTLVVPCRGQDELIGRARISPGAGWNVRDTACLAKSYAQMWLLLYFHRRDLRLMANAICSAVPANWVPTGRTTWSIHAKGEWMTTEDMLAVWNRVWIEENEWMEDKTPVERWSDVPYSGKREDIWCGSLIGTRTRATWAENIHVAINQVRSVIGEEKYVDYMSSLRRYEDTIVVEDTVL

B1: 10H10 monoclonal antibody (antibody, V domains shown)
VH: VKLEESGGGLVKPGGSLKLSCAASGFSFSDYYMYWVRQTPEKRLEWVATISDGGSHTSYRDSVKGRFTISRDNGKNNLYLQMSSLKSEDTAMYYCVRGAYWGQGTLVTVSS
VL: not shown
notes: also called 10H10 mAb; 10H10 antibody
binds: all assays above
